From the RNAGym collection of RNA variant scans (doi:10.7554/elife.80360) come the findings set out here.

First the molecules themselves.
B1: Hairpin Ribozyme (parent)
chain: GUCCUCUUUCACGUGCGCGUGAAAGAGAGAAGUGAACCAGAGAAACACACGUUGUGGUAUAUUACCUGGUA

The series covers variants of B1. The series can be described thus: self-cleavage, relative activity (ratio to wild type); higher = more cleavage; co-transcriptional.
On to G25C A36U, for which the self-cleavage turned out to be 0.397.
On to U7C A71U, for which the self-cleavage worked out at 0.592.
For the variant U8G C65U, the self-cleavage was determined as 0.363.
As for G1A C48U, the self-cleavage was 0.0691.
In the case of A39G A61G it was 0.123.
In the case of G54U U70A it was 0.657; in that of G54U A64G, 0.4; in that of A11G G17C, 0.571.
In the case of U20A G21A it was 0.79.
For the variant U9G U70C, the self-cleavage turned out to be 0.72.
On to U9C U55C, for which the self-cleavage amounted to 0.134.
As for C18A A36U, the figure is 0.593; as for C3G U70A, 0.252.
In the case of U20C G51U it was 1.07; in that of U58A U62G, 0.296; in that of U20G G42A, 0.266.
In the case of U14G U70A it was 0.823; in that of U8A G69U, 0.213.
Consider U20C G57C, for which the self-cleavage worked out at 0.198.
As for A26C A49U, the figure is 0.239.
In the case of A31G U58A it was 0.323.
As for C3U C38G, the figure is 0.201.
Consider U2A G51U, for which the self-cleavage turned out to be 0.228.
In the case of G19U A31U, the self-cleavage amounted to 0.0864.
As for C3G G51U, the figure is 0.342.
In the case of U58C A64G it was 0.502; in that of C12G U63C, 0.296; in that of G42A A71U, 0.159.
In the case of G51U U52A it was 1.1; in that of G15C A26G, 1.03; in that of G56A U67A, 0.197.
In the case of A22G G54A, the self-cleavage is 0.428.
Turning to U55G U70G, the self-cleavage is 0.17.
For G1C A24C, the self-cleavage came out at 0.32.
As for A23G A59C, the self-cleavage was 0.0706.
In the case of G15C G27A it was 0.555; in that of G15A A71C, 1.29; in that of G40U U55G, 0.232.
U8C A64U: the self-cleavage is 0.104.
In the case of G13U U62G it was 0.102; in that of U5G G27U, 0.0644.
Take C10A G57C: the self-cleavage worked out at 0.174.
In the case of C6U A23C, the self-cleavage is 0.608.
As for U8A A26G, the figure is 0.606.
In the case of A39U U60A, the self-cleavage stood at 0.345.
In the case of G17A G19A it was 0.962.
Turning to C10A, the self-cleavage was 0.722.
With C50G U52G, the self-cleavage was 0.312.
In the case of G17U U52C it was 0.816.
A31C A71U: the self-cleavage came out at 0.1.
In the case of C12A A28C it was 0.531; in that of G17A A28C, 0.74; in that of G25C A47G, 0.071.
For A26U A47G, the self-cleavage amounted to 0.142.
As for C66A G69A, the figure is 0.268; as for U14A G56C, 0.168; as for C18U A24C, 1.21.
As for C18U C48G, the figure is 0.0965.
As to A26G U63A, the self-cleavage was found to be 0.101.
In the case of A11C A35C it was 0.764; in that of C37U U62A, 0.165; in that of A30U U62C, 0.144.
As to U14A A39U, the self-cleavage was 0.408.
For the variant A39C A45U, the self-cleavage is 0.231.
As for U33G A44G, the figure is 0.0996.
As for C12U G32U, the self-cleavage worked out at 0.082.
With U8C A47U, the self-cleavage was 0.224.
As for G21U G57U, the figure is 0.224; as for G29U U60A, 0.169; as for A39U U67G, 0.371.
In the case of A30G C48A, the self-cleavage is 0.0555.
As for G1U G40A, the self-cleavage amounted to 0.123.
As for C6G A41C, the self-cleavage stood at 0.552.
With G32U G51U, the self-cleavage came out at 0.119.
In the case of U2C A26G it was 0.121; in that of A41G G69A, 0.411.
As for A41G G69C, the figure is 0.534; as for A30G G42U, 0.0793.
Consider A49C U67G, for which the self-cleavage was 0.109.
For the variant G15U G56A, the self-cleavage worked out at 0.187.
Consider A39G U55C, for which the self-cleavage came out at 0.119.
Take C16U A64G: the self-cleavage came to 0.505.
C18A A35G: the self-cleavage amounted to 1.05.
As for C16U U60G, the figure is 0.634; as for A30C G42C, 0.094; as for C4U G34U, 1.12.
In the case of A22C G68C it was 0.247.
As for C12G A43C, the self-cleavage came out at 0.125.
As to U62G C66U, the self-cleavage turned out to be 0.12.
In the case of A39G A49G it was 0.116; in that of A26C U52G, 0.409.
As for A30G C46G, the figure is 0.185.
U9G G13A: the self-cleavage came to 0.536.
In the case of A30C G51U, the self-cleavage came to 0.178.
For the variant G32C C50A, the self-cleavage came out at 0.109.
Turning to G17U A22G, the self-cleavage stood at 0.831.
In the case of G21A U63G it was 0.118; in that of C46G A49G, 0.137; in that of U8C U60A, 0.554.
Consider C4A G15U, for which the self-cleavage is 0.182.
In the case of U9A C66A it was 0.166; in that of U63C G68A, 0.192.
In the case of G29A G54A it was 0.141.
As for G15U U67G, the figure is 0.364.
As for U2G C18U, the self-cleavage amounted to 0.378.
In the case of A22U A61C it was 0.171.
As for A11C C50A, the figure is 0.288.
As to A11C G54C, the self-cleavage was determined as 0.378.
In the case of G13A A41C it was 1.04; in that of C10U A45U, 0.111; in that of C37A A45G, 0.0956.
As for U7A A45C, the figure is 0.232; as for G13U A45G, 0.0663.
As for C3G C16A, the self-cleavage was found to be 0.324.
As for G32A G34C, the figure is 1.23; as for C4A U9A, 0.233.
Regarding G21A A36G, the self-cleavage is 0.959.
As to G1C C12A, the self-cleavage was found to be 0.215.
In the case of U9G A30U it was 0.0546.
In the case of U58A U70C it was 0.728; in that of U63G A64G, 0.134; in that of C46U C48A, 0.203.
In the case of C12U A41U it was 0.928.
With C12U C65U, the self-cleavage was 0.348.
As for U20G A71G, the figure is 0.971; as for G51U, 1.03.
In the case of G19C A49C it was 0.0455.
Turning to U14A U62A, the self-cleavage was determined as 0.0586.
In the case of C12U A44C it was 0.184; in that of G32U A44C, 0.112; in that of U9A C38A, 0.146.
As for A22U A71C, the figure is 1.37.
In the case of A41U C66A it was 0.271; in that of G13A A59C, 0.196.
On to G21U A61U, for which the self-cleavage came to 0.202.
As for C10U A59U, the figure is 0.124.
In the case of G21A A47C it was 0.402; in that of A30G U53C, 0.288.
As for G57U C66U, the figure is 0.244; as for G42A A59G, 0.264; as for U20C C48G, 0.104.
In the case of C6U A43C, the self-cleavage worked out at 0.0901.
In the case of G34C G69A it was 0.896.
On to G32U A71G, for which the self-cleavage came out at 0.214.
As for A24G U33C, the figure is 0.125; as for C50U U62A, 0.185.
For G27U U63C, the self-cleavage came to 0.0849.
As for U9C A71G, the figure is 0.933.
In the case of G13C U53A it was 0.747; in that of U2C G54A, 0.134.
For the variant A30U G40A, the self-cleavage came to 0.0894.
As for C10U G57A, the figure is 0.249.
For the variant A22U A47C, the self-cleavage was found to be 0.345.
As for C12A G29U, the figure is 0.201; as for C4A A26U, 0.228; as for U20A U52G, 0.685.
In the case of G19C G42A it was 0.194; in that of C12U U20A, 0.695.
As for A31U A43U, the figure is 0.0597; as for C6G C46G, 0.124.
For U2C A23U, the self-cleavage amounted to 0.185.
U20G G25U: the self-cleavage is 0.64.
On to A43U A59U, for which the self-cleavage is 0.204.
In the case of U9C G57U it was 0.185.
As for A36U U55A, the figure is 0.161.
In the case of A41C C66U it was 0.614; in that of G15C, 1.03.
